Experimental data reported in patent US20110229458A1 (published 2011).
Substitutions are numbered along the chain they refer to.

B1: DMS7148 (other)
chain: HGEGTFTSDVSSYLEGQAAKEFIADLVEGRGPSSDIQMTQSPSSLSASVGDRVTITCRASQWIGSQLSWYQQKPGKAPKLLIMWRSSLQSGVPSRFSGSGSGTDFTLTISSLQPEDFATYYCAQGAALPRTFGQGTKVEIKR
B2: DMS7161 (other)
chain: B1 chain with A126L, A127R, L128H, R130K

Columns and labels:
[1] = molecular target: T1, human GLP-1 receptor (human, UniProt P43220 24-463); assay: cell-based or functional assay
T1 sequence (P43220 24-463): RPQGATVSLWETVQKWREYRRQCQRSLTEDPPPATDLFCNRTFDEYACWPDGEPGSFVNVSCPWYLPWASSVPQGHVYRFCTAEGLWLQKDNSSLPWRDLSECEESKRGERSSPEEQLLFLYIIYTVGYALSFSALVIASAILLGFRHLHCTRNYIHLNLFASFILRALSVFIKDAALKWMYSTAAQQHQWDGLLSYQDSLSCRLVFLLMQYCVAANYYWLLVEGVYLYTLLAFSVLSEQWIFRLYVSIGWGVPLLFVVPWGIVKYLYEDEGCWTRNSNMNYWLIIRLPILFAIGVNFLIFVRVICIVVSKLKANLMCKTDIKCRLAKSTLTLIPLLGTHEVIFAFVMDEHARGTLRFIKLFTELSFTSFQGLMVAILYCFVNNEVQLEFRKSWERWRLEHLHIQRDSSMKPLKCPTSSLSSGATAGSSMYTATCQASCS

[2] = molecular target: T1, human GLP-1 receptor; assay: cell-based or functional assay; remark: listed apart in the source

| Binder | pEC50 (6CRE luciferase reporter, CHO 6CRE GLP1R cells) [1] | EC50 (M) (luciferase reporter, CHO 6CRE GLP1R cells); preparation DMS7161 A [2] | EC50 (M) (luciferase reporter, CHO 6CRE GLP1R cells); preparation DMS7161 B [2] | pEC50 (luciferase reporter, CHO 6CRE GLP1R cells); preparation DMS7161 A [2] | pEC50 (luciferase reporter, CHO 6CRE GLP1R cells); preparation DMS7161 B [2] |
| --- | --- | --- | --- | --- | --- |
| B1 | 9.45 |  |  |  |  |
| B2 |  | 3.4e-09 | 1.6e-09 | 8.47 | 8.79 |
